Experimental data taken from US20130058911.

Molecular target: metmyoglobin
Sequence (P68082 2-154): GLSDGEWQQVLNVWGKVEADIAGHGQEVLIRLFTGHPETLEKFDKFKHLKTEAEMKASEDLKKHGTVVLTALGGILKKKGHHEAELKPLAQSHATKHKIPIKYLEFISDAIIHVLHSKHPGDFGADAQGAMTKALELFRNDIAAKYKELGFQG

| Protein | metmyoglobin reduction activity (change in A406 with NADH) | reactivity for myoglobin (relative to DLD) |
| --- | --- | --- |
| recombinant dihydrolipoyl dehydrogenase (DLD) without His tag (protein) MVVGDFPIETDTLVIGAGPGGYVAAIRAAQLGQKVTVVEKATLGGVCLNVGCIPSKALINAGHRYENAKHSDDMGITAENVTVDFTKVQEWKASVVNKLTGGVAGLLKGNKVDVVKGEAYFVDSNSVRVMDENSAQTYTFKNAIIATGSRPIELPNFKYSERVLNSTGALALKEIPKKLVVIGGGYIGTELGTAYANFGTELVILEGGDEILPGFEKQMSSLVTRRLKKKGNVEIHTNAMAKGVEERPDGVTVTFEVKGEEKTVDADYVLITVGRRPNTDELGLEQVGIEMTDRGIVKTDKQCRTNVPNIYAIGDIIEGPPLAHKASYEGKIAAEAIAGEPAEIDYLGIPAVVFSEPELASVGYTEAQAKEEGLDIVAAKFPFAANGRALSLNETDGFMKLITRKEDGLVIGAQIAGASASDMISELSLAIEGGMTAEDIAMTIHAHPTLGEITMEAAEVAIGSPIHIVK | Both of them showed 10 times or more higher metmyoglobin reduction activity than the empty vector |  |
| recombinant dihydrolipoyl dehydrogenase (DLD) with His tag (protein) MVVGDFPIETDTLVIGAGPGGYVAAIRAAQLGQKVTVVEKATLGGVCLNVGCIPSKALINAGHRYENAKHSDDMGITAENVTVDFTKVQEWKASVVNKLTGGVAGLLKGNKVDVVKGEAYFVDSNSVRVMDENSAQTYTFKNAIIATGSRPIELPNFKYSERVLNSTGALALKEIPKKLVVIGGGYIGTELGTAYANFGTELVILEGGDEILPGFEKQMSSLVTRRLKKKGNVEIHTNAMAKGVEERPDGVTVTFEVKGEEKTVDADYVLITVGRRPNTDELGLEQVGIEMTDRGIVKTDKQCRTNVPNIYAIGDIIEGPPLAHKASYEGKIAAEAIAGEPAEIDYLGIPAVVFSEPELASVGYTEAQAKEEGLDIVAAKFPFAANGRALSLNETDGFMKLITRKEDGLVIGAQIAGASASDMISELSLAIEGGMTAEDIAMTIHAHPTLGEITMEAAEVAIGSPIHIVKHHHHHH | Both of them showed 10 times or more higher metmyoglobin reduction activity than the empty vector |  |
| recombinant putative NAD(P)H nitroreductase (yodC) of Bacillus subtilis with C-terminal 6x His-tag (protein) MTNTLDVLKARASVKEYDTNAPISKEELTELLDLATKAPSAWNLQHWHFTVFHSDESKAELLPVAYNQKQIVESSAVVAILGDLKANENGEEVYAELASQGYITDEIKQTLLGQINGAYQSEQFARDSAFLNASLAAMQLMIAAKAKGYDTCAIGGFNKEQFQKQFDISERYVPVMLISIGKAVKPAHQSNRLPLSKVSTWLHHHHHH | the activity of yodC was confirmed | In comparison with DLD, yodC showed about 2.6 times and 22 times higher reactivity for potassium ferricyanide and myoglobin, respectively |
| recombinant malate dehydrogenase (MDH) of Bacillus subtilis with C-terminal 6x His-tag (protein) MGNTRKKVSVIGAGFTGATTAFLIAQKELADVVLVDIPQLENPTKGKALDMLEASPVQGFDAKITGTSNYEDTAGSDIVVITAGIARKPGMSRDDLVSTNEKIMRSVTQEIVKYSPDSIIVVLTNPVDAMTYAVYKESGFPKERVIGQSGVLDTARFRTFVAEELNLSVKDVTGFVLGGHGDDMVPLVRYSYAGGIPLETLIPKERIDAIVERTRKGGGEIVNLLGNGSAYYAPAASLTEMVEAILKDQRRVLPTIAYLEGEYGYEGIYLGVPTIVGGNGLEQIIELELTDYERAQLNKSVESVKNVMKVLSHHHHHH | the activity of MDH was not found |  |
